Data taken from US9345743B2, “Agent for promoting proliferation of bifidobacteria” (MORINAGA MILK INDUSTRY CO., LTD., priority 2011, dated 2016).

What was measured:
Test in all cases: Bifidobacterium proliferation promoting activity, turbidity at 630 nm after 16 h anaerobic culture in MRS medium
Type in all cases: cell-based
Details in all cases: 37° C.
[1] = tested on: Bifidobacterium breve ATCC 15700
Method: (§1) A 9.375 μM aqueous solution of each peptide was adjusted to pH 6.5 with an HCl aqueous solution, and subjected to filtration sterilization using a 0.22-μm membrane. Each peptide solution was diluted with dilution water to obtain 9.375 μM, 3.125 μM, 0.9375 μM, and 0.3125 μM sample solutions. As the dilution water, purified water adjusted to pH 6.5 with an HCl solution and sterilized at 115° C. for 15 minutes was used.
(§2) Bifidobacterium proliferation promoting activities of the aforementioned peptides were evaluated as follows.
(§3) The bifidobacteria used for the experiment were as follows. These strains can be obtained from ATCC (American Type Culture Collection, http://www.atcc.org/). • Bifidobacterium infantis ATCC 15697^T • Bifidobacterium breve ATCC 15700^T • Bifidobacterium bifidum ATCC 29521^T
(§4) A cell suspension of each strain (100 μL) cryopreserved in a 10% skim milk medium was added to the MRS liquid medium (3 mL), and culture was performed at 37° C. for 16 hours under an anaerobic condition. The culture medium (100 μL) was added to the MRS liquid medium (3 mL). The MRS liquid medium was prepared by dissolving Difco Lactobacilli MRS Broth (5.5 g, BD, “Difco” is a registered trademark of Difco Laboratories, Incorporated), and L-cysteine monohydrochloride monohydrate (50 mg, Wako Pure Chemical Industries, Co., Ltd.) in pure water so as to obtain a final volume of 100 mL, adjusting the solution to pH 6.5 with an HCl aqueous solution, and sterilizing the solution at 115° C. for 15 minutes. Further, a concentrated medium containing the components at twofold concentrations was prepared in the same manner as described above, except that Difco Lactobacilli MRS Broth and L-cysteine monohydrochloride monohydrate were used in amounts of 11 g and 100 mg, respectively.
(§5) The aforementioned culture medium was diluted with the MRS liquid medium so as to obtain a turbidity of 0.8 measured at a wavelength of 630 nm. This diluted culture medium was further diluted 100 times with the MRS liquid medium. The obtained diluted culture medium is referred to as 1% diluted culture medium.
(§6) Anaerobic culture was performed at 37° C. for 16 hours in a mixture of 100 μL of the twofold concentrated culture medium, 80 μL of a sample solution or the dilution water, and 20 μL of the 1% diluted culture medium (inoculation volume was 0.1%) or the MRS liquid medium (inoculation volume was 0%) on a 96-well plate (FALCON 353072). The final concentration of the peptide in the mixture was 3.75 μM, 1.25 μM, 0.375 μM, 0.125 μM, or 0 μM.
(§7) After the culture, turbidity of each culture medium was measured at a wavelength of 630 nm, and the proliferation promoting ratio (%) was calculated in accordance with the following equation. Proliferation promoting ratio (%)=(ODS1−ODS0)/(ODC1−ODC0)×100−100
(§8) ODS1: Turbidity observed after culture performed at a sample concentration of 3.75 to 0.125 μM and inoculation volume of 0.1% for 16 hours
(§9) ODS0: Turbidity observed after culture performed at a sample concentration of 3.75 to 0.125 μM and inoculation volume of 0% for 16 hours
(§10) ODC0: Turbidity observed after culture performed at a sample concentration of 0 μM and inoculation volume of 0% for 16 hours
(§11) Bifidobacterium proliferation promoting activities of the aforementioned peptides were evaluated in the same manner as that of Example 1.

[2] = tested on: Bifidobacterium bifidum ATCC 29521
Method: as §1, §2, §3, §4, §5, §6, §7, §8, §9, §10, §11

[3] = tested on: Bifidobacterium infantis ATCC 15697
Method: as §1, §2, §3, §4, §5, §6, §7, §8, §9, §10, §11

B1: bovine lactoferrin (protein, UniProt P24627 20-708, looked up)
Lactotransferrin: APRKNVRWCTISQPEWFKCRRWQWRMKKLGAPSITCVRRAFALECIRAIAEKKADAVTLDGGMVFEAGRDPYKLRPVAAEIYGTKESPQTHYYAVAVVKKGSNFQLDQLQGRKSCHTGLGRSAGWIIPMGILRPYLSWTESLEPLQGAVAKFFSASCVPCIDRQAYPNLCQLCKGEGENQCACSSREPYFGYSGAFKCLQDGAGDVAFVKETTVFENLPEKADRDQYELLCLNNSRAPVDAFKECHLAQVPSHAVVARSVDGKEDLIWKLLSKAQEKFGKNKSRSFQLFGSPPGQRDLLFKDSALGFLRIPSKVDSALYLGSRYLTTLKNLRETAEEVKARYTRVVWCAVGPEEQKKCQQWSQQSGQNVTCATASTTDDCIVLVLKGEADALNLDGGYIYTAGKCGLVPVLAENRKSSKHSSLDCVLRPTEGYLAVAVVKKANEGLTWNSLKDKKSCHTAVDRTAGWNIPMGLIVNQTGSCAFDEFFSQSCAPGADPKSRLCALCAGDDQGLDKCVPNSKEKYYGYTGAFRCLAEDVGDVAFVKNDTVWENTNGESTADWAKNLNREDFRLLCLDGTRKPVTEAQSCHLAVAPNHAVVSRSDRAAHVKQVLLHQQALFGKNGKNCPDKFCLFKSETKNLLFNDNTECLAKLGGRPTYEEYLGTEYVTAIANLKKCSTSPLLEACAFLTR
Proliferation promoting ratio (%) ([1]; B. breve ATCC 15700, 0.125 μM): 2% | Proliferation promoting ratio (%) ([1]; B. breve ATCC 15700, 0.375 μM): 4% | Proliferation promoting ratio (%) ([1]; B. breve ATCC 15700, 1.25 μM): 8% | Proliferation promoting ratio (%) ([1]; B. breve ATCC 15700, 3.75 μM): 21% | Proliferation promoting ratio (%) ([2]; B. bifidum ATCC 29521, 0.125 μM): 8% | Proliferation promoting ratio (%) ([2]; B. bifidum ATCC 29521, 0.375 μM): 8% | Proliferation promoting ratio (%) ([2]; B. bifidum ATCC 29521, 1.25 μM): 10% | Proliferation promoting ratio (%) ([2]; B. bifidum ATCC 29521, 3.75 μM): 12% | Proliferation promoting ratio (%) ([3]; B. infantis ATCC 15697, 0.125 μM): 1% | Proliferation promoting ratio (%) ([3]; B. infantis ATCC 15697, 0.375 μM): 1% | Proliferation promoting ratio (%) ([3]; B. infantis ATCC 15697, 1.25 μM): 13% | Proliferation promoting ratio (%) ([3]; B. infantis ATCC 15697, 3.75 μM): 23%
